Measured values taken from publication PMC4477937, “Alpha-2-Macroglobulin Is Acutely Sensitive to Freezing and Lyophilization: Implications for Structural and Functional Studies” (PLoS ONE, 2015).

Legend:
Creatine phosphokinase = Creatine phosphokinase (UniProt P00563 1-381); assay: cell-based or functional assay
[1] = biological target: the molecule itself; assay: native gel or EMSA; native PAGE, NuPAGE 3–8% Tris-acetate, Tris-glycine running buffer, stained with InstantBlue; purified α2M after storage (4°C for months, -20°C, rapid freezing, lyophilization)

Chain of Creatine phosphokinase (P00563 whole entry): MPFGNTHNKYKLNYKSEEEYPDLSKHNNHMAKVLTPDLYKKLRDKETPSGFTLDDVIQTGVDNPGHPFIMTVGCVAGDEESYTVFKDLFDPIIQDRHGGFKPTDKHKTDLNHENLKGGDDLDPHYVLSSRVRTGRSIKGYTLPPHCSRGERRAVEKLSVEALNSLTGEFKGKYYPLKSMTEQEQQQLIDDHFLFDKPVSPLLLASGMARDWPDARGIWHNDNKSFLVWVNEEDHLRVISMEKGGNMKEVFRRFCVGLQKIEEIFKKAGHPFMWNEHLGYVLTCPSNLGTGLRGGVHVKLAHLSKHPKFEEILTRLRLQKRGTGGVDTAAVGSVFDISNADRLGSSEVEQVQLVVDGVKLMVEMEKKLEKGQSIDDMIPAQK

B1: Alpha-2-macroglobulin (natural protein, human, UniProt P01023 24-1474, looked up)
chain: SVSGKPQYMVLVPSLLHTETTEKGCVLLSYLNETVTVSASLESVRGNRSLFTDLEAENDVLHCVAFAVPKSSSNEEVMFLTVQVKGPTQEFKKRTTVMVKNEDSLVFVQTDKSIYKPGQTVKFRVVSMDENFHPLNELIPLVYIQDPKGNRIAQWQSFQLEGGLKQFSFPLSSEPFQGSYKVVVQKKSGGRTEHPFTVEEFVLPKFEVQVTVPKIITILEEEMNVSVCGLYTYGKPVPGHVTVSICRKYSDASDCHGEDSQAFCEKFSGQLNSHGCFYQQVKTKVFQLKRKEYEMKLHTEAQIQEEGTVVELTGRQSSEITRTITKLSFVKVDSHFRQGIPFFGQVRLVDGKGVPIPNKVIFIRGNEANYYSNATTDEHGLVQFSINTTNVMGTSLTVRVNYKDRSPCYGYQWVSEEHEEAHHTAYLVFSPSKSFVHLEPMSHELPCGHTQTVQAHYILNGGTLLGLKKLSFYYLIMAKGGIVRTGTHGLLVKQEDMKGHFSISIPVKSDIAPVARLLIYAVLPTGDVIGDSAKYDVENCLANKVDLSFSPSQSLPASHAHLRVTAAPQSVCALRAVDQSVLLMKPDAELSASSVYNLLPEKDLTGFPGPLNDQDNEDCINRHNVYINGITYTPVSSTNEKDMYSFLEDMGLKAFTNSKIRKPKMCPQLQQYEMHGPEGLRVGFYESDVMGRGHARLVHVEEPHTETVRKYFPETWIWDLVVVNSAGVAEVGVTVPDTITEWKAGAFCLSEDAGLGISSTASLRAFQPFFVELTMPYSVIRGEAFTLKATVLNYLPKCIRVSVQLEASPAFLAVPVEKEQAPHCICANGRQTVSWAVTPKSLGNVNFTVSAEALESQELCGTEVPSVPEHGRKDTVIKPLLVEPEGLEKETTFNSLLCPSGGEVSEELSLKLPPNVVEESARASVSVLGDILGSAMQNTQNLLQMPYGCGEQNMVLFAPNIYVLDYLNETQQLTPEIKSKAIGYLNTGYQRQLNYKHYDGSYSTFGERYGRNQGNTWLTAFVLKTFAQARAYIFIDEAHITQALIWLSQRQKDNGCFRSSGSLLNNAIKGGVEDEVTLSAYITIALLEIPLTVTHPVVRNALFCLESAWKTAQEGDHGSHVYTKALLAYAFALAGNQDKRKEVLKSLNEEAVKKDNSVHWERPQKPKAPVGHFYEPQAPSAEVEMTSYVLLAYLTAQPAPTSEDLTSATNIVKWITKQQNAQGGFSSTQDTVVALHALSKYGAATFTRTGKAAQVTIQSSGTFSSKFQVDNNNRLLLQQVSLPELPGEYSMKVTGEGCVYLQTSLKYNILPEKEEFPFALGVQTLPQTCDEPKAHTSFQISLSVSYTGSRSASNMAIVDVKMVSGFIPLKPTVKMLERSNHVSRTEVSSNHVLIYLDKVSNQTLSLFFTVLQDVPVRDLKPAIVKVYDYYETDEFAIAEYNAPCSKDLGNA
notes: alpha-2-macroglobulin, human, from blood plasma; 720 kDa homotetramer of four 180 kDa subunits, paired by disulfide bonds into dimers; Storage changes the conformation (native, transformed, dimers, higher molecular weight species); also called α2M; native α2M; source: purified from human blood plasma (Zn-charged HiTrap chelating column, Sephacryl S-300 gel filtration)
decrease in turbidity (absorbance at 595 nm) of CPK (5 μM) at 43°C over 8 hrs with α2M at a molar ratio of α2M-to-CPK of 1:15; α2M rapidly frozen in liquid nitrogen and stored at -20°C for 1 month (Creatine phosphokinase): ~50% | binding result [1]: binds
